First the molecules themselves.
T1: Vps18 (CORVET and HOPS core subunit) (yeast, UniProt P27801 1-918)
T1 construct: Vps18, yeast, core subunit shared by CORVET and HOPS
T1 sequence: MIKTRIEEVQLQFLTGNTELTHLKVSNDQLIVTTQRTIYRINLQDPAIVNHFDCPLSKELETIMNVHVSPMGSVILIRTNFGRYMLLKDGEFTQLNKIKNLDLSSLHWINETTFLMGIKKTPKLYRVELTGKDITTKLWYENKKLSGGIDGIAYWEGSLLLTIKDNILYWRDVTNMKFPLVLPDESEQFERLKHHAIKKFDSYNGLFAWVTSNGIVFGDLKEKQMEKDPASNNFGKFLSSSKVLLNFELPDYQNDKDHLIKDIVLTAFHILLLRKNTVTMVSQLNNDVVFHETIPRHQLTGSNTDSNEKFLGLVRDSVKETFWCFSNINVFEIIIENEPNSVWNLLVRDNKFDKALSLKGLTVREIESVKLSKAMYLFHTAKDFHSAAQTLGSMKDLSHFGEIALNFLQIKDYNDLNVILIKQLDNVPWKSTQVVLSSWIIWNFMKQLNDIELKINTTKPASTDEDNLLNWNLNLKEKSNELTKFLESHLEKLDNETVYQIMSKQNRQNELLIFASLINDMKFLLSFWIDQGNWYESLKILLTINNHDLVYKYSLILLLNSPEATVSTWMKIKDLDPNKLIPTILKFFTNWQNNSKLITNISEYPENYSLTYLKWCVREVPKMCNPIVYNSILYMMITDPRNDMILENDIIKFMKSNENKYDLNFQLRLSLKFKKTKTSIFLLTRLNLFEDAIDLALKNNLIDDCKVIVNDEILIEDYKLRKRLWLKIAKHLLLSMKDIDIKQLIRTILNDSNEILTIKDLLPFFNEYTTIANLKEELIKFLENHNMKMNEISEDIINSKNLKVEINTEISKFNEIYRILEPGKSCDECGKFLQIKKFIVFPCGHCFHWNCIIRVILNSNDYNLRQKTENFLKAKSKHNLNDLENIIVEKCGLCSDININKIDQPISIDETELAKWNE

T2: Vps8 with 3xFLAG tag (CORVET subunit) (yeast, UniProt P39702 1-1274)
T2 construct: UniProt P39702 printed for its AlphaFold model
T2 sequence: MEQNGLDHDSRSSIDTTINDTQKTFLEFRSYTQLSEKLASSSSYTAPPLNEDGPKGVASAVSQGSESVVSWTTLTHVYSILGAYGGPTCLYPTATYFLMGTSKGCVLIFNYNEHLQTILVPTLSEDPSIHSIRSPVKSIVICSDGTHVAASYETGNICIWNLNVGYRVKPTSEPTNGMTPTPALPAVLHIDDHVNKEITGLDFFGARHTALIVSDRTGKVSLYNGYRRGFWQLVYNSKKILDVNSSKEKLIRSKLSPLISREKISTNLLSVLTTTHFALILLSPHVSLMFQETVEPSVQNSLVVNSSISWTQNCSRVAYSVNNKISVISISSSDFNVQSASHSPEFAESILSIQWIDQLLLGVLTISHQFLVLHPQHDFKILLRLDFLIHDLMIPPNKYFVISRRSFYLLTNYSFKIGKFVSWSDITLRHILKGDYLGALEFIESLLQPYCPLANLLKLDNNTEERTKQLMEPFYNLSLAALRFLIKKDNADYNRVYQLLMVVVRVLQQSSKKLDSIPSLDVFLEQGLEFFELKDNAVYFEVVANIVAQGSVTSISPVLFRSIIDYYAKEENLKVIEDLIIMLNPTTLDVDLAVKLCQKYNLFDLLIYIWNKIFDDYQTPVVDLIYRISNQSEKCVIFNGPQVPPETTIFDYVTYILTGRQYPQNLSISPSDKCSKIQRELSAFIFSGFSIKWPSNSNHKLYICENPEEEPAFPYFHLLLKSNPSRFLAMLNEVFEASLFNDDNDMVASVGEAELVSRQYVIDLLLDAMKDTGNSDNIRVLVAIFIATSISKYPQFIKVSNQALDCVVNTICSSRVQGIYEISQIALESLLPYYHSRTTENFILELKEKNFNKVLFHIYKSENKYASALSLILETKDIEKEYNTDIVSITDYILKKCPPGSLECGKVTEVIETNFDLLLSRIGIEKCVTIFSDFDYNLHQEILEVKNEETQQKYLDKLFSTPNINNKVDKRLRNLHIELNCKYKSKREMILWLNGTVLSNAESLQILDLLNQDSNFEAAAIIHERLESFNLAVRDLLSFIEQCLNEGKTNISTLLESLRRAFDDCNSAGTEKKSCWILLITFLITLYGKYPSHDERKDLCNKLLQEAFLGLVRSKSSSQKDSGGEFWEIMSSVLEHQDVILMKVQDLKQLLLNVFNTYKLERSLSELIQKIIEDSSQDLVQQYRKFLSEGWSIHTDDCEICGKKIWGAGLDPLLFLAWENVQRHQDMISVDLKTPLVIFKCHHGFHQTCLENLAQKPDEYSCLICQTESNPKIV

B1: Vps33 (CORVET and HOPS subunit, SM protein of the SNARE-binding module) (natural protein, yeast)
chain: MNRFWNTKKFSLTNADGLCATLNEISQNDEVLVVQPSVLPVLNSLLTFQDLTQSTPVRKITLLDDQLSDDLPSALGSVPQMDLIFLIDVRTSLRLPPQLLDAAQKHNLSSLHIIYCRWKPSFQNTLEDTEQWQKDGFDLNSKKTHFPNVIESQLKELSNEYTLYPWDLLPFPQIDENVLLTHSLYNMENVNMYYPNLRSLQSATESILVDDMVNSLQSLIFETNSIITNVVSIGNLSKRCSHLLKKRIDEHQTENDLFIKGTLYGERTNCGLEMDLIILERNTDPITPLLTQLTYAGILDDLYEFNSGIKIKEKDMNFNYKEDKIWNDLKFLNFGSIGPQLNKLAKELQTQYDTRHKAESVHEIKEFVDSLGSLQQRQAFLKNHTTLSSDVLKVVETEEYGSFNKILELELEILMGNTLNNDIEDIILELQYQYEVDQKKILRLICLLSLCKNSLREKDYEYLRTFMIDSWGIEKCFQLESLAELGFFTSKTGKTDLHITTSKSTRLQKEYRYISQWFNTVPIEDEHAADKITNENDDFSEATFAYSGVVPLTMRLVQMLYDRSILFHNYSSQQPFILSREPRVSQTEDLIEQLYGDSHAIEESIWVPGTITKKINASIKSNNRRSIDGSNGTFHAAEDIALVVFLGGVTMGEIAIMKHLQKILGKKGINKRFIIIADGLINGTRIMNSIS
notes: Vps33, yeast, subunit shared by CORVET and HOPS
B2: Vps16 (CORVET and HOPS subunit, SNARE-binding module) (natural protein, yeast)
chain: MKNPSFDWERLKDVFYRSRAIGELKWPTQYEEFKCALSLTVIAVEIQDFIQVYNYFGQLLGKINLQRIHEDIIKFEFDKDEKLILVTKSSIKIVKGWSPLTIESVPLQDPTIDTIWDYHNGIMLLAKSRDIYKLNGNEWELLYENKDKKYNLLTKNHWSCNDDSIILLDVDHVYQVSTSNGALLKLITDSSWHKVTISSRGFICLYNMKDNKLQIFRDPARILMEHNLDSTPDDICWCGNDTVACSFEDEIKLYGPDGLYVTFWYPFTVTNLRAEVDGLKVITTEKIYFLSRVQPQTSNIFRIGSTEPGAMLVDSFSLLEDHAPKAIEILKNFVLEKGVLDCIAAAIDEFEPKLQKMLLNAASYGKASLQYKSFDASIFVNACNTIKLLNCFRSFGIFLTVEEYRCISLKGVIDRLLKYHRYYECIQICKLANERFLLGYVFTEWAKDKIKGSPDMEDDELLDKIKSRLSVIDMTDTLQMVAVAKVAYLEGRFQLSRNLALLEKNEEARIEQLYNLDDDSIALKECIKVQNYSLTISLLIALSKKLTNSQLTKLLIIDMFNNPLYLYYMRMDKAYLYDFYRQTDRFIDLAHVLLQQGKEQQSLHSFLPQIKDLYSQVQNSEVVNNTIEQLQRQEKLWIYQESLGKRFAISFTNMTLDQTLSKLIETGQDKQVKEIVKKFKISEKKLYHLKCKTLVEAKKFDELLQFAQSRKSPIGYMPFYTYLKSRGHMDKASPYVNMIPGLSYQEKKKLYVECRGFRDAIQLAGKEKDIPGLKEIYNIIPPNEPELKALANETMSRI
notes: Vps16, yeast, subunit shared by CORVET and HOPS

Experiment in all cases: cryo-EM structure; single-particle cryo-EM of the hexameric CORVET co-expressed in yeast and purified by 3xFLAG on Vps8 and SEC; about 0.8 mg/ml; consensus map 4.6 Å, local refinements to 3.8 Å
Common to all, as to settings: both partners purified

In assay [1] the target is T1, Vps18 (CORVET and HOPS core subunit).
Assay [2] addresses B2.
Assay [3] concerns the target T2, Vps8 with 3xFLAG tag (CORVET subunit).

For the molecule B1, the binding result in assay [1] and in assay [2] was “binds” throughout.

Turning to B2, the binding result in assay [3] and in assay [1] was “binds” throughout.

(Values after paper PMC11187117, “Structure of the endosomal CORVET tethering complex” (Nature Communications, 2024).)
